Data from patent publication US20220387457A1.

Substrate: CC1(C)Oc2ccc(C#N)cc2[C@@H](N2CCCC2=O)[C@@H]1OP(=O)(O)O
Test: purified protein, by the assay type
Type: biochemical, human
Conditions: other: ALP 0.02 U/100 μL, pH 10, 37.0 °C
Protocol: To activate CKLP1, the phosphate is hydrolyzed from phosphatases to produce leveromakalim, the active moiety that can open (activate) ATP-sensitive potassium channels.
In the first experiment, a fixed concentration of CKLP1 solution was incubated with varying concentrations of placenta-derived human alkaline phosphatase. To accomplish this, placenta-derived human alkaline phosphatase (0.0002 U) in a 100-μL volume was added to each of thirteen 1.5-mL tubes. To each tube, CKLP1 was then added at a fixed concentration [10 mM (0.4%)]. Tubes were inverted twice and incubated in a water bath at 37° C. At each of 13 different time points (0, 1, 2.5, 5, 15, and 30 minutes and at 1, 2, 4, 8, 24, 48, and 72 hours), a single tube was removed, and the reaction was stopped by the addition of 2 volumes (200 μL) of acetonitrile. Samples were stored at −80° C. The experiment was repeated with 10 mM CKLP1 (0.4%) in the presence of placenta-derived human alkaline phosphatase at concentrations of 0.002 U, 0.02 U, and 0.2 U. All assays were performed at pH 10.
In a second experiment, a fixed concentration of placenta-derived human alkaline phosphatase was incubated with varying concentrations of CKLP1. To accomplish this, a fixed concentration of 0.02 U of placenta-derived human alkaline phosphatase in a 100-μL volume was added to each of thirteen 1.5-mL tubes. […]

B1: placenta-derived human alkaline phosphatase (Homo sapiens) (protein)
chain: IIPVEEENPDFWNREAAEALGAAKKLQPAQTAAKNLIIFLGDGMGVSTVTAARILKGQKKDKLGPEIPLAMDRFPYVALSKTYNVDKHVPDSGATATAYLCGVKGNFQTIGLSAAARFNQCNTTRGNEVISVMNRAKKAGKSVGVVTTTRVQHASPAGTYAHTVNRNWYSDADVPASARQEGCQDIATQLISNMDIDVILGGGRKYMFRMGTPDPEYPDDYSQGGTRLDGKNLVQEWLAKRQGARYVWNRTELMQASLDPSVTHLMGLFEPGDMKYEIHRDSTLDPSLMEMTEAALRLLSRNPRGFFLFVEGGRIDHGHHESRAYRALTETIMFDDAIERAGQLTSEEDTLSLVTADHSHVFSFGGYPLRGSSIFGLAPGKARDRKAYTVLLYGNGPGYVLKDGARPDVTESESGSPEYRQQSAVPLDEETHAGEDVAVFARGPQAHLVHGVQEQTFIAHVMAFAACLEPYTACDLAPPAGTTD
notes: varying concentrations of placenta-derived human alkaline phosphatase; from tissue; host or cells: human placenta
Km: 399 µM
